± gives the uncertainty stated by the source.

A short description of this data set: abundance fitness (aPCA) (normalised: wild type 0, dead -1); higher = more abundant; growth selection in yeast, the domain comes from the species named. The conditions noted are these: Homo sapiens.
As to “Transcriptional activator Myb I155T, P10242”, the abundance fitness is -0.535 ± 0.083.
In turn, “Transcriptional activator Myb I155V, P10242” displayed an abundance fitness of -0.187 ± 0.075.
With “Transcriptional activator Myb I155Y, P10242” the figure was -1.21 ± 0.21; with “Transcriptional activator Myb I169A, P10242”, -0.477 ± 0.1.
With “Transcriptional activator Myb I169C, P10242” the figure was -0.521 ± 0.14; with “Transcriptional activator Myb I169D, P10242”, -0.679 ± 0.13; with “Transcriptional activator Myb I169E, P10242”, -0.641 ± 0.12.
“Transcriptional activator Myb I169F, P10242” displayed an abundance fitness of -0.516 ± 0.12.
Substance “Transcriptional activator Myb I169G, P10242” registered an abundance fitness of -0.681 ± 0.071.
Regarding “Transcriptional activator Myb I169H, P10242”, the abundance fitness was -0.799 ± 0.22.
With “Transcriptional activator Myb I169K, P10242” the figure was -1.05 ± 0.15; with “Transcriptional activator Myb I169L, P10242”, -0.427 ± 0.086; with “Transcriptional activator Myb I169M, P10242”, -0.18 ± 0.093.
“Transcriptional activator Myb I169N, P10242” yielded an abundance fitness of -0.91 ± 0.14.
The substance “Transcriptional activator Myb I169P, P10242” had an abundance fitness of -0.734 ± 0.12.
For “Transcriptional activator Myb I169Q, P10242” the value was -0.677 ± 0.16; for “Transcriptional activator Myb I169R, P10242”, -0.784 ± 0.071; for “Transcriptional activator Myb I169S, P10242”, -0.642 ± 0.076.
Substance “Transcriptional activator Myb I169T, P10242” displayed an abundance fitness of -0.567 ± 0.11.
Consider “Transcriptional activator Myb I169V, P10242”, for which the abundance fitness was -0.343 ± 0.094.
With “Transcriptional activator Myb I169W, P10242” the figure was -1.08 ± 0.18; with “Transcriptional activator Myb I169Y, P10242”, -0.147 ± 0.097; with “Transcriptional activator Myb I181A, P10242”, -0.569 ± 0.084.
On to “Transcriptional activator Myb I181D, P10242”, for which the abundance fitness was -1 ± 0.17.
On to “Transcriptional activator Myb I181E, P10242”, for which the abundance fitness is -0.64 ± 0.11.
Substance “Transcriptional activator Myb I181F, P10242” had an abundance fitness of -1.16 ± 0.38.
With “Transcriptional activator Myb I181G, P10242” the figure was -1.01 ± 0.07; with “Transcriptional activator Myb I181H, P10242”, -1.17 ± 0.25.
For “Transcriptional activator Myb I181K, P10242”, the abundance fitness was -1.34 ± 0.35.
In turn, “Transcriptional activator Myb I181L, P10242” showed an abundance fitness of -0.365 ± 0.094.
The substance “Transcriptional activator Myb I181N, P10242” gave an abundance fitness of -0.658 ± 0.35.
Consider “Transcriptional activator Myb I181P, P10242”, for which the abundance fitness is -0.881 ± 0.25.
In turn, “Transcriptional activator Myb I181Q, P10242” gave an abundance fitness of -0.756 ± 0.13.
Regarding “Transcriptional activator Myb I181R, P10242”, the abundance fitness is -0.933 ± 0.081.
For “Transcriptional activator Myb I181S, P10242” the value was -0.694 ± 0.086; for “Transcriptional activator Myb I181T, P10242”, -0.278 ± 0.094.
With “Transcriptional activator Myb I181V, P10242” the figure was -0.036 ± 0.07; with “Transcriptional activator Myb I181W, P10242”, -1.26 ± 0.2; with “Transcriptional activator Myb K143A, P10242”, 0.049 ± 0.15.
With “Transcriptional activator Myb K143D, P10242” the figure was -0.192 ± 0.19; with “Transcriptional activator Myb K143E, P10242”, -0.144 ± 0.17; with “Transcriptional activator Myb K143F, P10242”, -0.235 ± 0.18.
“Transcriptional activator Myb K143G, P10242” came in with an abundance fitness of -0.06 ± 0.059.
For “Transcriptional activator Myb K143I, P10242” the value was -0.233 ± 0.14; for “Transcriptional activator Myb K143L, P10242”, -0.221 ± 0.16; for “Transcriptional activator Myb K143M, P10242”, -0.031 ± 0.16.
The substance “Transcriptional activator Myb K143P, P10242” had an abundance fitness of -0.406 ± 0.49.
As to “Transcriptional activator Myb K143Q, P10242”, the abundance fitness is -0.961 ± 0.36.
“Transcriptional activator Myb K143R, P10242” had an abundance fitness of -0.228 ± 0.12.
In the case of “Transcriptional activator Myb K143S, P10242”, the abundance fitness was -0.245 ± 0.11.
With “Transcriptional activator Myb K143T, P10242”, the abundance fitness is -0.118 ± 0.11.
The substance “Transcriptional activator Myb K143V, P10242” gave an abundance fitness of -0.13 ± 0.087.
Take “Transcriptional activator Myb K143W, P10242”: the abundance fitness is -0.535 ± 0.076.
For “Transcriptional activator Myb K143Y, P10242” the value was -0.201 ± 0.16.
As for “Transcriptional activator Myb K144A, P10242”, the abundance fitness was -0.202 ± 0.099.
On to “Transcriptional activator Myb K144C, P10242”, for which the abundance fitness was -0.095 ± 0.12.
“Transcriptional activator Myb K144D, P10242” displayed an abundance fitness of 0.06 ± 0.14.
With “Transcriptional activator Myb K144E, P10242”, the abundance fitness was -0.114 ± 0.14.
With “Transcriptional activator Myb K144F, P10242” the figure was -0.285 ± 0.16.
“Transcriptional activator Myb K144G, P10242” had an abundance fitness of -0.042 ± 0.059.
For “Transcriptional activator Myb K144H, P10242” the value was -0.232 ± 0.12.
For “Transcriptional activator Myb K144I, P10242”, the abundance fitness is -0.206 ± 0.22.
Regarding “Transcriptional activator Myb K144L, P10242”, the abundance fitness is -0.101 ± 0.084.
Substance “Transcriptional activator Myb K144M, P10242” yielded an abundance fitness of 0.028 ± 0.1.
Take “Transcriptional activator Myb K144N, P10242”: the abundance fitness is 0.073 ± 0.11.
With “Transcriptional activator Myb K144P, P10242” the figure was -0.269 ± 0.11; with “Transcriptional activator Myb K144Q, P10242”, -0.015 ± 0.1; with “Transcriptional activator Myb K144R, P10242”, -0.078 ± 0.072.
For “Transcriptional activator Myb K144S, P10242”, the abundance fitness came to 0.067 ± 0.085.
For “Transcriptional activator Myb K144T, P10242” the value was 0.101 ± 0.086; for “Transcriptional activator Myb K144V, P10242”, -0.042 ± 0.085.
For “Transcriptional activator Myb K144W, P10242” the value was -0.201 ± 0.089; for “Transcriptional activator Myb K144Y, P10242”, 0.08 ± 0.16; for “Transcriptional activator Myb K171A, P10242”, -0.017 ± 0.093.
Substance “Transcriptional activator Myb K171C, P10242” showed an abundance fitness of -0.238 ± 0.12.
In turn, “Transcriptional activator Myb K171D, P10242” yielded an abundance fitness of -0.234 ± 0.14.
“Transcriptional activator Myb K171E, P10242” showed an abundance fitness of -0.017 ± 0.064.
“Transcriptional activator Myb K171F, P10242” showed an abundance fitness of -0.638 ± 0.22.
For “Transcriptional activator Myb K171G, P10242” the value was -0.336 ± 0.061; for “Transcriptional activator Myb K171H, P10242”, -0.207 ± 0.28.
For “Transcriptional activator Myb K171I, P10242” the value was -0.141 ± 0.12; for “Transcriptional activator Myb K171M, P10242”, 0 ± 0.08.
“Transcriptional activator Myb K171P, P10242”: the abundance fitness is -0.354 ± 0.14.
For “Transcriptional activator Myb K171Q, P10242” the value was -0.084 ± 0.1; for “Transcriptional activator Myb K171S, P10242”, 0.016 ± 0.071; for “Transcriptional activator Myb K171T, P10242”, -0.148 ± 0.2.
For “Transcriptional activator Myb K171V, P10242” the value was -0.19 ± 0.088; for “Transcriptional activator Myb K171W, P10242”, -0.598 ± 0.091; for “Transcriptional activator Myb K182C, P10242”, -0.167 ± 0.11.
As to “Transcriptional activator Myb K182D, P10242”, the abundance fitness is -0.548 ± 0.1.
Take “Transcriptional activator Myb K182E, P10242”: the abundance fitness came out at 0.01 ± 0.062.
On to “Transcriptional activator Myb K182F, P10242”, for which the abundance fitness is -0.383 ± 0.16.
In the case of “Transcriptional activator Myb K182H, P10242”, the abundance fitness is -0.299 ± 0.16.
With “Transcriptional activator Myb K182I, P10242” the figure was -0.181 ± 0.14; with “Transcriptional activator Myb K182L, P10242”, -0.051 ± 0.068.

Source of the values: the Human Domainome abundance scans (Beltran et al. 2025).
